These results are taken from patent publication US20260263614A1, “ANTIBODY DRUG CONJUGATES THAT BIND CDCP1 AND USES THEREOF” (Pheon Therapeutics Ltd, priority 2022, published 2026).

Like-named read-outs stand apart in the source and are kept apart here.

In series [1] the test system is HexA and MS1 DNA fragments. Description: DNA footprinting. The format is binding. The procedure:
Footprinting reactions were performed as using previously described methods using the DNA fragments HexA and HexB, which together contain all 64 symmetrical hexanucleotide sequences, and MS1 that contains all possible […] tetranucleotide sequences. The DNA fragments were obtained by cutting the parent plasmids with HindIII and SacI (for HexA and MS1) or EcoRI and PstI (for HexB), and were labelled at the 3′-end of the HindIII or EcoRI sites with [α-^32P]dATP using reverse transcriptase or exo-Klenow fragment. After gel purification, the radiolabelled DNA was dissolved in 10 mM Tris-HCl pH 7.5 containing 0.1 mM EDTA, at a concentration of about 10 c.p.s per μL as determined on a hand held Geiger counter. 1.5 μL of radiolabelled DNA was mixed with 1.5 μL ligand that had been freshly diluted in 10 mM Tris-HCl pH 7.5, containing 10 mM NaCl. The complexes were left to equilibrate for at least 12 hours before digesting with 2 μL DNase I (final concentration about 0.01 units/mL). The reactions were stopped after 1 minute by adding 4 μL of formamide containing 10 mM EDTA and bromophenol blue (0.1% w/v). The samples were then heated at 100° C. for 3 minutes before loading onto 8% denaturing polyacrylamide gels containing 8 M urea. Gels were fixed in 10% acetic acid, transferred to 3 MM paper, dried and exposed to a phosphor screen overnight, before analysing with a Typhoon phosphorimager
The DNA sequence selectivity profile of the molecules was investigated using a modification of a previously established DNA footprinting assay. Following an overnight incubation of the ligand-DNA complexes, the mixture was mixed with strand separation buffer containing 10 mM EDTA, 10 mM NaOH, 0.1% bromophenol blue, 80% formamide and incubated at 100° C. for 3 min. The mixture was then immediately cooled on ice and run on an 8% denaturing gel. […] The possible adducts formed within the HexA sequences are shown in FIGS. 20 and 21, respectively.

For series [2], the system named is linear double-stranded TyrT fragment. Description: DNA cross-linking assay. It counts as biochemical. On the procedure:
The preparation of the TyrT DNA fragment has been previously described. Briefly, the sequence which had been cloned into the BamHI site of pUC18 was obtained by cutting with HindIII and EcoRI. Radiolabelled DNA fragments were prepared by filling in the 3′-end of the HindIII site with [α-^32P]dATP using Klenow DNA polymerase (exo-).
The radiolabelled DNA fragment was separated from the remainder of the plasmid DNA on a 6% non-denaturing polyacrylamide gel. The gel (20 cm long, 0.3 mm thick) was run at 400 V in 1×TBE running buffer for about 1-2 h, until the bromophenol blue had run most of the way down the gel. The glass plates were separated and the position of the labelled DNA fragment was established by short (1 min) exposure to an X-ray film. The relevant band was then cut from the gel and the radiolabelled DNA eluted by adding 300 μL 10 mM Tris-HCl, pH 7.5 containing 0.1 mM EDTA and gently agitating overnight at room temperature. The eluted DNA was finally precipitated with ethanol and re-suspended in a suitable volume of 10 mM Tris-HCl, pH 7.5 containing 0.1 mM EDTA buffer so as to give at least 10 counts per second/μL on a hand-held Geiger counter. With fresh plasmid and α-^32P-dATP this process typically generated about 150 μL of radiolabelled fragment DNA. The absolute concentration of the DNA is not important, and it is typically lower than 10 nM.
Radiolabelled DNA ([…]) was mixed with 1.5 μL ligand solution of various concentrations (10 μM-10 nM) and incubated overnight at 37° C.
After overnight incubation, the samples were mixed with 7 μL loading solution (80% formamide containing 10 mM EDTA, 10 mM NaOH, 0.1% bromophenol blue) and incubated at 65° C. for 5 min. Control 1 (C1) for native double-stranded DNA consisted of 1.5 μL labelled DNA, 1.5 μL 10 mM Tris-HCl, pH 7.5 containing 0.1 mM EDTA and 7 μL 1× loading dye. […]
The ability of 26 to cross-link DNA was evaluated using an assay involving a linear double-stranded TyrT fragment (FIG. 17). […]

The nature of series [3]: Comparative repeat-dose rat toxicity study. It counts as in vivo. The following applies: DAR 8 on a Trastuzumab backbone; IV once every 3 weeks, two doses, 20 or 60 mg/kg.
The target of series [4] is T1, CDCP1 on antigen-positive cells (A427; CDCP1+ cells MDA-MB-468, PC3, DU145) (Homo sapiens (Human), UniProt Q9H5V8 30-836, On the FIG. 45 cell lines, part of the CDCP1 is proteolytically cleaved in the extracellular domain; the cleavage site is not stated. The uncleaved mature protein is given.).
T1 construct: also called the antigen; antigen positive cell-line (A427)
Description: flow cytometry on MDA-MB-468 cells (CDCP1+ cleavage), channel R712-A. (In general: Flow cytometry measures light scatter and fluorescence of single cells or particles in a stream.)

Series [5] deals with T2, huCDCP1(F30-T667 Q525)-8×His_T3 (human, UniProt Q9H5V8 30-667).
T2 construct: The construct name gives the limits F30-T667 and Q525; also called recombinant CDCP1 ECD; CDCP1 ECD
Description: SPR, huCDCP1(F30-T667 Q525)-8×His_T3 as analyte; mAb lot T14.

Series [6] deals with T1, CDCP1 on antigen-positive cells (A427; …). The series is described as follows: binding to CDCP1+ cells (cell line not given), % Maximum against log concentration, fitted curve.
The target is the same in series [7]. The description is as above. This is another data set of the same source.

As for `C=CCOC(=O)N1c2cc(OCCCC(=O)Nc3cc(C(=O)Nc4ccc(NC(=O)C(F)(F)F)cc4)n(C)c3)c(OC)cc2C(=O)N2CCCC[C@H]2C1OC1CCCCO1` (stereo partly drawn) [Compound 17, Allyl (6aS)-2-methoxy-3-(4-((1-methyl-5-((4-(2,2,2-trifluoroacetamido)phenyl)carbamoyl)-1H-pyrrol-3-yl)amino)-4-oxobutoxy)-12-oxo-6-((tetrahydro-2H-pyran-2-yl)oxy)-6,6a,7,8,9,10-hexahydrobenzo[e]pyrido[1,2-a][1,4]diazepine-5(12H)-carboxylate], the “DNA-binding site (X any base, W adenine or thymine)” value in series [1] is on record as “XGXWWWW”.

As to `COc1cc2c(cc1OCCCC(=O)Nc1cc(C(=O)Nc3ccc(N)cc3)n(C)c1)N=C[C@@H]1CCCCN1C2=O` [Compound 19, (S)—N-(4-Aminophenyl)-4-(4-((2-methoxy-12-oxo-6a,7,8,9,10,12-hexahydrobenzo[e]pyrido[1,2-a][1,4]diazepin-3-yl)oxy)butanamido)-1-methyl-1H-pyrrol-2-carboxamide], in series [2], the “ability to cross-link DNA (conclusion)” value was “incapable of cross-linking DNA”.

Turning to `COc1cc2c(cc1OCCCC(=O)Nc1cc(C(=O)Nc3ccc(-c4cc(C(=O)Nc5ccc(N)cc5)n(C)c4)cc3)n(C)c1)N=C[C@@H]1CCCCN1C2=O` [Compound 26, (S)—N-(4-aminophenyl)-4-(4-(4-(4-((2-methoxy-12-oxo-6a,7,8,9,10,12-hexahydrobenzo[e]pyrido[1,2-a][1,4]diazepin-3-yl)oxy)butanamido)-1-methyl-1H-pyrrol-2-carboxamido)phenyl)-1-methyl-1H-pyrrol-2-carboxamide], the “ability to cross-link DNA (conclusion)” value in series [2] is listed as “incapable of cross-linking DNA”. In series [2] (six concentrations, overnight incubation at 37° C., denaturing gel), the DNA interstrand cross-links entry is “not detectable at any concentration”. In series [1], the “DNA stabilisation and sequence selectivity (biophysical summary)” value is “effectively stabilises DNA with a high degree of sequence-specificity”; the “DNA-binding site (X any base, W adenine or thymine)” value is “XGXWWWW”. Also, the “footprints (preferred sites) on HexA” value in series [1] (overnight incubation of ligand-DNA complexes) was “only five preferred sites”.

Consider `CC[C@@]1(O)C(=O)OCc2c1cc1n(c2=O)Cc2c-1nc1cc(F)c(C)c3c1c2[C@@H](NC(=O)CO)CC3` [Dxd, reference compound], for which the tolerability result in series [3] is reported as “well tolerated”.

B1: mAbs-CDCPA1 Sequence 2 (anti-CDCP1 antibody, Sequence 2) (antibody, V domains shown)
VH: QVQLVQSGAEVKKPGSSVKVSCKASGGTFSSYAMSWVRQAPGQGLEWMGGIIPILGTTNYAQKFQGRVTITADKSTSTAYMELSSLRSEDTAVYYCAREGLYAFDIWGQGTMVTVSS
VL: DIQMTQSPSSLSASVGDRVTITCRASQSISSYLNWYQQKPGKAPKFLIYVASSLQSGVPSRFSGRGSGTDFTLTISSLQPEDFATYYCQQSYSTPWTFGQGTKVEIK
With B1, the binding result in series [4] is listed as “binds”.

B2: CDCP1-vcMMAE (DAR of 4) (antibody, V domains shown)
VH: EVQLLESGGGLVQPGGSLRLSCAASGFTFSNYAMNWVRQAPGKGLEWVSAISGGGGSTYYADSVKGRFTISRDNSKNTLYLQMNSLRAEDTAVYYCAKESITMVRGVMDYYGMDVWGQGTTVTVSS
VL: DIQLTQSPSFLSASVGDRVTITCRASQGISSYLAWYQQKPGKAPKLLIYAASTLQGGVPSRFSGSGSGTEFTLTISSLQPEDFATYYCQHLNRFPRTFGQGTKVEIK
modifications: vc-MMAE (Val-Cit linker, monomethyl auristatin E) conjugated to the antibody, DAR of 4; sites not stated
notes: also called CDCP1-MMAE
Consider B2, for which, in series [5], the Kd (usually the concentration at which binding is half-saturated) came out at 0.604 nM, the koff (usually the first-order rate constant of dissociation) turned out to be 0.00038 s⁻¹ and the kon (commonly the second-order rate constant of association) was 629000 M⁻¹ s⁻¹. Moreover, the EC50 in series [6] came to 0.384 µg/mL.

B3: ADC4 (CDCP1 mAb conjugated to compound 30, DAR of 4) (antibody, IgG1, V domains shown)
VH: EVQLLESGGGLVQPGGSLRLSCAASGFTFSNYAMNWVRQAPGKGLEWVSAISGGGGSTYYADSVKGRFTISRDNSKNTLYLQMNSLRAEDTAVYYCAKESITMVRGVMDYYGMDVWGQGTTVTVSS
VL: DIQLTQSPSFLSASVGDRVTITCRASQGISSYLAWYQQKPGKAPKLLIYAASTLQGGVPSRFSGSGSGTEFTLTISSLQPEDFATYYCQHLNRFPRTFGQGTKVEIK
modifications: compound 30 (Mal-amido-PEG8-Val-Ala-exatecan) conjugated stochastically to reduced cysteines of the IgG1, average DAR 4; sites not stated
As for B3, in series [5], binding was characterised by a dissociation constant (Kd) of 0.604 nM, the koff was 0.000401 s⁻¹ and the kon was found to be 663000 M⁻¹ s⁻¹.

B4: ADC2 (CDCP1 mAb conjugated to compound 20, DAR of 4) (antibody, IgG1, V domains shown)
VH: EVQLLESGGGLVQPGGSLRLSCAASGFTFSNYAMNWVRQAPGKGLEWVSAISGGGGSTYYADSVKGRFTISRDNSKNTLYLQMNSLRAEDTAVYYCAKESITMVRGVMDYYGMDVWGQGTTVTVSS
VL: DIQLTQSPSFLSASVGDRVTITCRASQGISSYLAWYQQKPGKAPKLLIYAASTLQGGVPSRFSGSGSGTEFTLTISSLQPEDFATYYCQHLNRFPRTFGQGTKVEIK
modifications: compound 20 (maleimide-Val-Ala-PDD linker-payload) conjugated stochastically to reduced cysteines of the IgG1, average DAR 4.2; sites not stated
For B4, in series [5], the Kd was found to be 0.635 nM, the off-rate (koff) was 0.000374 s⁻¹ and the kon turned out to be 589000 M⁻¹ s⁻¹.

B5: ADC3 (CDCP1 mAb conjugated to compound 30, DAR of 8) (antibody, IgG1, V domains shown)
VH: EVQLLESGGGLVQPGGSLRLSCAASGFTFSNYAMNWVRQAPGKGLEWVSAISGGGGSTYYADSVKGRFTISRDNSKNTLYLQMNSLRAEDTAVYYCAKESITMVRGVMDYYGMDVWGQGTTVTVSS
VL: DIQLTQSPSFLSASVGDRVTITCRASQGISSYLAWYQQKPGKAPKLLIYAASTLQGGVPSRFSGSGSGTEFTLTISSLQPEDFATYYCQHLNRFPRTFGQGTKVEIK
modifications: compound 30 (Mal-amido-PEG8-Val-Ala-exatecan) conjugated stochastically to reduced cysteines of the IgG1, average DAR 7.3 (called DAR of 8); sites not stated
notes: also called CDCP1-targeted exatecan conjugate
B5: in series [5], the affinity, expressed as Kd, was 0.57 nM; the koff was 0.000422 s⁻¹; the on-rate constant (kon) was determined as 740000 M⁻¹ s⁻¹. This molecule also displayed an EC50 in series [7] of 0.16 µg/mL.
